Target: Get1/2 heterodimer, cytosolically labeled (Get1-S77C-Cy5 and Get2-S28C-Cy3) (yeast) (UniProt P53192)
Assay: FRET or BRET

B1: Get3-D57N (enzyme)
chain: MDLTVEPNLHSLITSTTHKWIFVGGKGGVGKTTSSCSIAIQMALSQPNKQFLLISTNPAHNLSDAFGEKFGKDARKVTGMNNLSCMEIDPSAALKDMNDMAVSRANNNGSDGQGDDLGSLLQGGALADLTGSIPGIDEALSFMEVMKHIKRQEQGEGETFDTVIFDTAPTGHTLRFLQLPNTLSKLLEKFGEITNKLGPMLNSFMGAGNVDISGKLNELKANVETIRQQFTDPDLTTFVCVCISEFLSLYETERLIQELISYDMDVNSIIVNQLLFAENDQEHNCKRCQARWKMQKKYLDQIDELYEDFHVVKMPLCAGEIRGLNNLTKFSQFLNKEYNPITDGKVIYELEDKE
B1 was tested, and the Kd was under 1 nM and the stoichiometry N (Get3 homodimer per Get1/2 heterodimer) was 1.

Reference: publication PMC5657598
